Numbering of substitutions follows the chain as printed. Values belong to the binder of their own block, whether it stands above or below them.
Experiments:
[1] = biological target: 人源TROP2, full length, on transfected cells (CHOK1-hTROP2 2B2; 293F-TROP2 6F6) (human) (UniProt P09758); assay: FACS on CHOK1-TROP2 cells
[2] = biological target: T1, 食蟹猴TROP2, full length, on CHOK1 cells (CHOK1-cTROP2 2B2C2) (cynomolgus monkey, UniProt P09758 27-323 (human entry)); assay: FACS on CHOK1-cTROP2 cells
T1 chain: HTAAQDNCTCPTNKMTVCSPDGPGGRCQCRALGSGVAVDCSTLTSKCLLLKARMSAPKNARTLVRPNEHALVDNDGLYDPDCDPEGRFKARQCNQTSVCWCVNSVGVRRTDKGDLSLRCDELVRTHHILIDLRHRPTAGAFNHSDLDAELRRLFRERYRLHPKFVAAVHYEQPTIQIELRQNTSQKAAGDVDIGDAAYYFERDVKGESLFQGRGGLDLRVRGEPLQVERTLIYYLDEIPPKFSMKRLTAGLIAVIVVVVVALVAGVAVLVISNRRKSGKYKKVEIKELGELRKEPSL

[3] = biological target: T2, 人源TROP2, full length, on transfected cells (CHOK1-hTROP2 2B2; 293F-TROP2 6F6) (human, UniProt P09758 27-323); assay: FACS on CHOK1-hTROP2 cells
T2 construct: Full-length human TROP2 expressed from pIRES in CHOK1 or HEK293 cells; the host cell is named under assay; also called CHOk1-TROP2; CHOK-TROP2
T2 sequence: T1 chain with V36M, N67S, V204I, V266M, S272T

[4] = biological target: T3, 人源TROP2-hFc蛋白 (免疫原A; human TROP2 Thr88-Thr274 with human IgG Fc tag) (human, UniProt P09758 88-274); assay: ELISA, hTROP2-hFc coated at 1.0 μg/mL
T3 construct: also called hTROP2-hFc; 人TROP2-hFc蛋白; not shown: human IgG Fc fragment (hFc) of the pCpC vector
T3 sequence: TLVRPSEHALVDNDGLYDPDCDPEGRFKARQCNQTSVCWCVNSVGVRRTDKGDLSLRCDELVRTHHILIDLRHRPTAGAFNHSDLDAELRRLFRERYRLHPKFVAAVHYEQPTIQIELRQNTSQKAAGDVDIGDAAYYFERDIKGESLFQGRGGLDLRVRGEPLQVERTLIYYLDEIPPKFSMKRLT

[5] = biological target: T4, 人TROP2-his (CAT#10428-H08H-100, Sino biological) (human, UniProt P09758 27-274); assay: SPR (Biacore), antibody captured by human Fab capture on CM5, human TROP2-his flowed
T4 construct: Bought; also called 人TROP2-his抗原; not shown: His tag
T4 sequence (looked up): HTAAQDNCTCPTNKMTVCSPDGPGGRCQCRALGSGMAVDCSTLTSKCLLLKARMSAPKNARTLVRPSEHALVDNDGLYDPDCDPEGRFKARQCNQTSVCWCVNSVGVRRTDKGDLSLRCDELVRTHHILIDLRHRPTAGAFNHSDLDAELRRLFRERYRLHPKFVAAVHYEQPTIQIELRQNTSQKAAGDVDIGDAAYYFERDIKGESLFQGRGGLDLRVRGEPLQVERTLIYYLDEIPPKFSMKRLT

[6] = biological target: T2, 人源TROP2, full length, on transfected …; assay: FACS on CHOK1-TROP2 cells (reference antibody)
[7] = biological target: T2, 人源TROP2, full length, on transfected …; assay: FACS on CHOK1-TROP2 cells

decrease of maximal MFI against wild-type chimeric 11E8 [1]: 53%
B1: 嵌合抗体11E8-3 (heavy chain CDR2 DG→EG) (antibody, human IgG1, V domains shown)
VH: QVQLQQSGAELVRPGSSVKISCKASGVAFSTYWMNWVRQRPGQGLEWIGQIYPGEGDTNSNGKFKGKATLTADKSSSTAYMQFSSLTSEDSAVYFCATRIPDHYGSDWGYFDVWGAGTTV
VL: DIVLTQSPASLAVSLGQRATISCRASKSVSTSGYSYMHWYQQKPGQPPKLLIYLASNLESGVPARFSGSGSGTDFTLNIHPVEEEDAATYYCQHSRELPPTFGGGTKLEIK

binding result [2]: binds
binding result [3]: binds
binding result [4]: binds
B2: TROP2抗体 11E8E6D11 (antibody, V domains shown)
VH: B1 VH with E55D
VL: B1 VL
notes: Mouse hybridoma antibody

Kd [5]: 10.3 nM
koff [5]: 0.00107 s⁻¹
kon [5]: 105000 M⁻¹ s⁻¹
B3: 嵌合抗体11E8(DA,NA) (antibody, V domains shown)
VH: B1 VH with E55D, G56A, G62A
VL: B1 VL

decrease of maximal MFI against wild-type chimeric 11E8 [1]: 23%
B4: 嵌合抗体11E8-2 (heavy chain CDR2 DG→SG) (antibody, human IgG1, V domains shown)
VH: B1 VH with E55S
VL: B1 VL

binding result [6]: binds
B5: 嵌合抗体11E8 (野生型) (antibody, V domains shown)
VH: B1 VH with E55D
VL: B1 VL
notes: also called 野生型抗体嵌合抗体11E8

binding result [7]: binds
B6: 嵌合抗体11E8-4 (heavy chain CDR2 DG→DA) (antibody, human IgG1, V domains shown)
VH: B1 VH with E55D, G56A
VL: B1 VL
notes: Human IgG1/kappa chimera; also called 突变体嵌合抗体11E8-4

binding result [7]: binds
B7: 嵌合抗体11E8-1 (heavy chain CDR2 NG→NA) (antibody, human IgG1, V domains shown)
VH: B1 VH with E55D, G62A
VL: B1 VL
notes: Human IgG1/kappa chimera; also called 突变抗体嵌合抗体11E8-1

Kd [5]: 1.21 nM
koff [5]: 0.000271 s⁻¹
kon [5]: 225000 M⁻¹ s⁻¹
B8: hRS7 (antibody, V domains shown)
VH: QVQLQQSGSELKKPGASVKVSCKASGYTFTNYGMNWVKQAPGQGLKWMGWINTYTGEPTYTDDFKGRFAFSLDTSVSTAYLQISSLKADDTAVYFCARGGFGSSYWYFDVWGQGSLVTVSS
VL: DIQLTQSPSSLSASVGDRVSITCKASQDVSIAVAWYQQKPGKAPKLLIYSASYRYTGVPDRFSGSGSGTDFTLTISSLQPEDFAVYYCQQHYITPLTFGAGTKVEIKR

Kd [5]: 20.7 nM
koff [5]: 0.00293 s⁻¹
kon [5]: 141000 M⁻¹ s⁻¹
B9: hTINA1-H1L1 (antibody, V domains shown)
VH: QVQLVQSGAEVKKPGASVKVSCKASGYTFTTAGMQWVRQAPGQGLEWMGWINTHSGVPKYAEDFKGRVTISADTSTSTAYLQLSSLKSEDTAVYYCARSGFGSSYWYFDVWGQGTLVTVSS
VL: B8 VL with L4M, S20T, I31T, D60S, A100Q, V104L

Source: patent CN112390885A (KAIHUI SCIENCE & TECH DEVELOPMENT SHANGHAI CO LTD, dated 2021)
